Our source for the Kd values is paper PMC6053351 (2017).

Holding throughout (experiment): ITC
(Isothermal titration calorimetry measures the heat released or taken up as one component is titrated into another.)

For test [1], the target named is RBBP4 Glu126Ala/Asn128Ala/Glu179Ala (UniProt Q09028 1-425, Glu126Ala | Asn128Ala | Glu179Ala).
Another test addresses RBBP4 Glu231Ala (UniProt Q09028 1-425, Glu231Ala).
The target in test [2] is RBBP4, full-length, wild type (UniProt Q09028 1-425).

In general, Kd refers to a measure of binding affinity in units of concentration. Read a low Kd as a tighter complex.

Sequence of RBBP4 Glu231Ala (Q09028 whole entry E231A): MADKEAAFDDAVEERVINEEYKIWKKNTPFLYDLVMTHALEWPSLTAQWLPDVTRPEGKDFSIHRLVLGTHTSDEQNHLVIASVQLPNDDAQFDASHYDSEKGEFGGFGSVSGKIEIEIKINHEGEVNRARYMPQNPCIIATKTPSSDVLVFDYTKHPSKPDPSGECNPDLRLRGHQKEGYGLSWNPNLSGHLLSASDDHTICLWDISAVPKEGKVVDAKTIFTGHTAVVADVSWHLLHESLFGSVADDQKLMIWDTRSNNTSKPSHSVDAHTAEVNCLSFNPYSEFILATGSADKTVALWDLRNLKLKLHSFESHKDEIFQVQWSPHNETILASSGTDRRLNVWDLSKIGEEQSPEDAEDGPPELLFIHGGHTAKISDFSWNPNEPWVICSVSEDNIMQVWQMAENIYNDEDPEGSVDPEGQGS
Sequence of RBBP4, full-length, wild type (Q09028 whole entry): as the sequence (Q09028 whole entry E231A) above, with A231E counted along it
Sequence of RBBP4 Glu126Ala/Asn128Ala/Glu179Ala (Q09028 whole entry E126A/N128A/E179A): as the sequence (Q09028 whole entry E231A) above, with E126A, N128A, E179A, A231E counted along it

With KRRKLKNKRRRS [AEBP2_(379–390) peptide (RRK-rich motif, residues Lys379–Ser390)], the Kd was determined as 56.8 µM in test [1] and 38.5 µM with RBBP4 Glu231Ala. With KARALKNKRRRS [AEBP2_(379–390) peptide with mutations Arg380Ala/Lys382Ala], the Kd in test [2] turned out to be 178 µM.
